# Results from paper PMC7060721.
# Target: ENLARGED VESSEL ELEMENT (EVE) homolog of Physcomitrella patens (Physcomitrella patens)
# Assay: SEC-MALS
sequence,measurement,value
ENLARGED VESSEL ELEMENT (EVE) homolog of Physcomitrella patens (natural protein),stoichiometry N,5
